Experiment [1] has as its target T1, PRMT5 (Homo sapiens, UniProt O14744). The experiment can be described thus: In vitro methyltransferase assay of E2F-1 proteins. The experiment is classed as biochemical. More on the design: made in house; host or cells: U2OS cells (transient transfection, anti-Flag immunoprecipitation, elution). The following applies: about 1 μg protein, 3H labeled SAM; mutants compared with wild-type E2F-1. On the procedure:
To assess whether the RGRGR motif was a direct target for PRMT5 methylation, a series of mutant derivatives of E2F-1 were made in which each arginine (R) residue was substituted with a lysine residue (K; FIG. 1a), and the ability of the mutant derivative to be methylated in vitro then assessed. […] In FIG. 1b(i) each of the indicated proteins (about 1 μg) was used in the methylation reaction. In vitro methylated samples were analysed by SDS-PAGE as described below. E2F-1 is indicated. In FIG. 1b(ii) samples in FIG. 1b(i) were counted (3H cpm as indicated). Histones treated with PRMT5 served as the positive control. The data shown provide one example taken from two different experiments.
Flag-PRMT5 plasmid was transfected into U2OS cells for 48 h. Cells were lysed and Flag-PRMT5 was immunoprecipitated with agarose beads and then eluted. The elute was mixed with recombinant substrates (GST fusion proteins or histones) in methylation reaction buffer (50 mM Tris, 0.1 mM EDTA, 50 mM NaCl) with ^3H labeled SAM (as —CH3 group donor) to a volume of 40 μl and incubated at 30° C. for 90 min. Half of the reactions were then spotted onto p81 membrane circles (Whatman) and air dried. The membranes were then washed three times, 5 min each in 50 ml of wash buffer (46 mM NaHCO3, 4 mM Na2CO3, pH 9.2). After washing briefly with acetone, membranes were air dried, placed in scintillation vials, immersed in scintillation fluid (Beckman Coulter) and disintegrations per minute (DPM) measured in a scintillation counter. The other half of the reactions were run on SDS-PAGE gel and used to detect ^3H auto-radioisotope/methylation signal.
Target sequence in this assay (O14744 whole entry): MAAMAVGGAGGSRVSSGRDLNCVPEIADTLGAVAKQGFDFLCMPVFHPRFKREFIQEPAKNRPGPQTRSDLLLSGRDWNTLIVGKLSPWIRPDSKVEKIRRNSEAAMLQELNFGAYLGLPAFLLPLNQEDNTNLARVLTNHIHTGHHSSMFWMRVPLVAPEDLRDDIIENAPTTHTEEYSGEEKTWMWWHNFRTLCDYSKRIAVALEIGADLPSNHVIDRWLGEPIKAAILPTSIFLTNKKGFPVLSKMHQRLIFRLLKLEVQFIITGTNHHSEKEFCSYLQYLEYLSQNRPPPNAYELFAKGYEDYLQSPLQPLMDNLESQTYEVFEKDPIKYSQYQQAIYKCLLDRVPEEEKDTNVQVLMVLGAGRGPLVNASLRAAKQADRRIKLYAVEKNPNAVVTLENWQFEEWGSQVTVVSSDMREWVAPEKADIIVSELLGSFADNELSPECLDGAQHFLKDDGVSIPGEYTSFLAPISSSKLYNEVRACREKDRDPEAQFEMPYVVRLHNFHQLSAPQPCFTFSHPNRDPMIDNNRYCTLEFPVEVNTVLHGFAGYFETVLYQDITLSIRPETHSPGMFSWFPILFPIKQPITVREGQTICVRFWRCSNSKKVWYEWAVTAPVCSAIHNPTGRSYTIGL
Target sequence in this assay (Q9BQA1 whole entry partner): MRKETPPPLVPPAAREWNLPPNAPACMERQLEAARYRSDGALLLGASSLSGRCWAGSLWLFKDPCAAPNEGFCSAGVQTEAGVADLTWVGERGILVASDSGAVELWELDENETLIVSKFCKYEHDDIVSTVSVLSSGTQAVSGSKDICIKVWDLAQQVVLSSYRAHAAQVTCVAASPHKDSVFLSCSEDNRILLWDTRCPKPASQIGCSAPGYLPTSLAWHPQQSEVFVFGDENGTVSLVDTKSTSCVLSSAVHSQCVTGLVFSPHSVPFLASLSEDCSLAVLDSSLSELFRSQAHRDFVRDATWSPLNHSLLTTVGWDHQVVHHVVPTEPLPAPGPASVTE

The target in experiment [2] is T1, PRMT5. The experiment is described as follows: GST binding assay with U2OS cell lysate, PRMT5 immunoblot. More on the design: The indicated GST proteins were incubated with U2OS cell lysate; endogenous in cells; host or cells: U2OS. The following applies: GST-E2F-1 proteins incubated with U2OS cell lysate. On the procedure:
It was then assessed whether E2F-1 could interact with PRMT5 and thereafter the role of each R residue in mediating the interaction. […] The indicated GST proteins were incubated with U2OS cell lysate, and bound proteins immunoblotted using anti-GST (for input GST), DP-1 or PRMT5 antibodies. Binding to DP-1, the major heterodimeric partner for E2F-1 (Stevens and La Thangue 2003), served as a control since it bound equally to each of the E2F-1 proteins.
GST or GST tagged proteins (10 μg each) were incubated with agarose beads and damaged or undamaged U2OS cell lysates for 3 h. Beads were then washed with TNN buffer 3 times. SDS sample buffer was added to beads and samples were analysed by immunoblotting.
Target sequence in this assay (O14744 whole entry): as the sequence (O14744 whole entry) above
A general note: Immunoblotting shows a protein as a band on a membrane.

Experiment [3] concerns p73-luciferase or cyclinE-luciferase. The experiment is described as follows: Reporter assay with E2F-responsive promoters. In kind it is cell-based. The following applies: U2OS cells, 48 h, equivalent protein level; compared to wild-type E2F-1; n=3. The procedure:
To further explore the role of arginine methylation in the transcription properties of E2F-1, wild-type E2F-1 was compared with the KK and KKK mutants in a reporter-based transfection assay, using E2F-responsive promoters derived from E2F target genes. The assay was performed under conditions in which each mutant protein was expressed at an equivalent level to wild-type E2F-1 (FIG. 4aii and bii), thus ruling out any difference in activity that could be attributed to protein levels. […] FIGS. 4a and b show the transcription properties of wild-type E2F-1, KK and KKK mutants. U2OS cells were transfected with expression vectors encoding WT or mutant E2F-1 protein, together with p73-luciferase (A) or cyclinE-luciferase (B) for 48 h as indicated, and pCMV-βgal to monitor transfection efficiency. Relative luciferase activity (luciferase/βgal) is shown together with expression level of ectopic proteins; n=3. […] PRMT5 (P) or control (C) non-targeting siRNA was transfected into U2OS cells together with p73-luciferase (i) or cyclinE-luciferase (ii) for 48 h, together with pCMV-βgal to monitor transfection efficiency. Relative luciferase activity is shown together with expression level of the ectopic proteins.
Cells were transfected with expression vectors (1 μg) encoding WT or the mutant E2F-1 proteins as indicated with E2F responsive luciferase reporters, namely p73-luciferase or cyclinE-luciferase, together with pCMV-βgal to monitor transfection efficiency. Cells were harvested, lysed 48 h post-transfection and luciferase activity measured as previously described (Janson et al 2008).
In general terms: A reporter such as luciferase makes a cellular process visible.

The test system of another experiment is U2OS cells. The experiment can be described thus: Apoptosis (sub-G1) by FACS in U2OS cells. In kind it is cell-based. The following applies: U2OS cells, expression vectors 48 h; relative to wild-type E2F-1; n=2. On the procedure:
Whether arginine methylation influences E2F-1-dependent apoptosis was investigated by comparing the ability of wild-type E2F-1 to the KK and KKK mutants to induce cells with a sub-G1 DNA content (Stevens et al 2003). […] U2OS cells were transfected with expression vectors encoding wild-type E2F-1, KK and KKK as indicated for 48 h and analysed by FACS as described. The graph represents the relative change in sub-G1 populations compared to the empty vector control treatment; n=2.
The graph (i) represents the relative number of sub-G I cells (compared to the control treatment) in the indicated conditions; and (ii) the level of PRMT5 and E2F-1; n=3.
PRMT5 (P) or control (C) non-targeting siRNA (25 nM) was transfected into HCT116 p53+/+ (i), HCT116 p53−/− (ii) or U2OS (iii) cells and the cells were harvested 72 h post-transfection and analysed by FACS. The graph represents the actual number of sub-G1 cells in the indicated conditions, and the immunoblot the level of PRMT5 and actin control; n=3.
PRMT5 (P), E2F-1 (E) or control (C) non-targeting siRNA was transfected into U2OS cells and harvested 72 h post-transfection and analysed by FACS as described.
Cells were transfected with the indicated expression vectors together with pBB14-GFP (for 48 h) to monitor transfection efficiency or siRNA (for 48 h or 72 h) with or without treatment of the DNA damage agent for the last 16 h. Then, cells were fixed and stained with propidium iodide and analyzed by Flow Cytometry.
A general note: Flow cytometry measures light scatter and fluorescence of single cells or particles in a stream.

Another experiment deals with T2, DP-1 (Homo sapiens, UniProt Q14186).
T2 construct: endogenous in cells; host or cells: U2OS
T2 sequence (Q14186 1-410): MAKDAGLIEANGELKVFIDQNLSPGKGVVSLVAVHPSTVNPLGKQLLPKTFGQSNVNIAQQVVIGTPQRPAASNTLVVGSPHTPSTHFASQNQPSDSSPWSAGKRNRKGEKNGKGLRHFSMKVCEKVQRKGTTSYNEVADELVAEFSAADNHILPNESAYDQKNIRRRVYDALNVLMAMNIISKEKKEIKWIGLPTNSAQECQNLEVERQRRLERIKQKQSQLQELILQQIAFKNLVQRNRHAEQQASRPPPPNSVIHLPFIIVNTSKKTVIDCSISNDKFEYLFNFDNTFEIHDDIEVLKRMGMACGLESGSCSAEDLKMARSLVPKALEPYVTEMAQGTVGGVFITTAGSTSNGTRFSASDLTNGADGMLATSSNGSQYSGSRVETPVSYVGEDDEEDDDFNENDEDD
The experiment can be described thus: Co-immunoprecipitation of ectopic E2F-1 with DP-1 in U2OS cells. The experiment is classed as cell-based. The following applies: expression vector transfected into U2OS cells, HA11 IP. From the text: (§1) To establish whether E2F-1 was able to bind to PRMT5 in cells, the interaction between ectopic wild-type E2F-1 or KKK with PRMT5 was studied. […] Either a wild-type E2F-1 expression vector or a KKK expression vector was transfected into U2OS cells, and HA11 antibody was used for immunoprecipitation (IP) followed by immunoblotting with HA11 (E2F-1), PRMT5 or DP-1 as indicated. The level of input (In) protein is indicated. […] In contrast, binding to DP-1 was equivalent for both wild-type E2F-1 and KKK. […] Further, the RGRGR motif is necessary for the interaction, which also encompasses the site of PRMT5 methylation.
(§2) Cells were either left untransfected or transfected with expression vectors as indicated. At 48 h post transfection, cells were harvested in TNN buffer (50 mM Tris-HC1 [pH 7.4], 150 mM NaCl, 5 mM EDTA, 0.5% Ipegal, 50 mM NaF, 0.2 mM sodium orthovanadate and protease inhibitor cocktail (1 mM PMSF, leupeptin [1 μg/ml], aprotinin [1 μg/m1], and pepstatin A [1 μg/ml])) and rotated at 4° C. for 30 min to 1 h. The cell lysate was then homogenised, centrifuged at 11000 rpm for 10 min to remove cell debris and the supernatant collected. All lysates were normalized for protein concentration and, where appropriate, for transfection by β-galactosidase activity. […] Enhanced chemi-luminescence (Pierce Biotechnology, Rockford, Ill.) was used to visualize antibody binding.

For experiment [4], the target named is T1, PRMT5. The experiment can be described thus: Co-immunoprecipitation of ectopic E2F-1 with PRMT5 in U2OS cells. In kind it is cell-based. Also on record: The indicated GST proteins were incubated with U2OS cell lysate; endogenous in cells; host or cells: U2OS. The following applies: expression vector transfected into U2OS cells, HA11 IP.
Description: as §1, §2
Target sequence in this assay (O14744 whole entry): as the sequence (O14744 whole entry) above

For “R113K: mutant E2F-1 with arginine 113 substituted with lysine”, the “in vitro methylation by PRMT5” value in the experiment with PRMT5 [1] is on record as “greater level of reduction”. Besides, the “binding to PRMT5” value in the experiment with PRMT5 [2] is reported as “compromised PRMT5 binding”.

Turning to “KK: methylation-defective E2F-1 protein containing the mutations R111K and R113K”, the “transcriptional activity (relative luciferase activity)” value in experiment [3] is “increased transcriptional activity”. For the same substance, the “apoptosis (sub-G1 population)” value in the experiment on U2OS cells is on record as “increased levels of apoptosis”. Besides, the “in vitro methylation by PRMT5” value with PRMT5 [1] is given as “could not be methylated by PRMT5”. Also, the “binding to PRMT5” value with PRMT5 [2] was “completely devoid of PRMT5 binding”.

As for “wild-type E2F-1: E2F-1 protein, SEQ ID NO:3, used as GST fusion or HA-tagged expression vector”, in the experiment with DP-1, the “binding to DP-1 in cells” value is given as “equivalent”. Besides, the “in vitro methylation by PRMT5” value with PRMT5 [1] is recorded as “could be methylated in vitro”. In addition, in the experiment with PRMT5 [2], the “binding to PRMT5” value is “bound to PRMT5”. For the same substance, the “co-immunoprecipitation with PRMT5” value with PRMT5 [4] is given as “co-immunoprecipitated with PRMT5”.

Take “R109K: mutant E2F-1 with arginine 109 substituted with lysine”: in the experiment with PRMT5 [1], the “in vitro methylation by PRMT5” value is “reduced methylation”. Further, the “binding to PRMT5” value in the experiment with PRMT5 [2] is reported as “significant PRMT5 binding activity”.

On to “R111K: mutant E2F-1 with arginine 111 substituted with lysine”, for which the “in vitro methylation by PRMT5” value in the experiment with PRMT5 [1] is recorded as “greater level of reduction”. In addition, the “binding to PRMT5” value with PRMT5 [2] is on record as “compromised PRMT5 binding”.

Values taken from patent US8841274B2, “Protein arginine N-methyltransferase-5 method of cancer treatment” (priority 2009, dated 2014).
